Measured values taken from PMC10288911 (2023).

How the values were obtained:
[1] = biological target: 6×His-tag cleaved FcRn/β2m (UniProt P55899 24-365; P61769 21-119); experiment: BLI; pH 7.4; IgG immobilised
[2] = biological target: FcRn/β2m heterodimers (SPR analyte) (UniProt P55899 24-365; P61769 21-119); experiment: SPR; pH 7.4; IgG captured by gp120
6×His-tagged FcRn/β2m = 6×His-tagged FcRn/β2m (UniProt P55899 24-365; P61769 21-119); experiment: BLI; pH 7.4; FcRn immobilised

Kd [1] | Kd [2] | Kd (6×His-tagged FcRn/β2m) | Binder
180 nM | 10000 nM | 930 nM | VRC07-523LS.v1 (antibody) chain 1: QVRLSQSGGQMKKPGDSMRISCRASGYEFINCPINWIRLAPGKRPEWMGWMKPRFGAVSYARQLQGRVTMTRQLSQDPDDPDWGTAFLELRSLTSDDTAVYFCTRGKYCTARDYYNWDFEHWGQGTPVTVSS chain 2: LTQSPGTLSLSPGETAIISCRTSQYGSLAWYQQRPGQAPRLVIYSGSTRAAGIPDRFSGSRWGPDYNLTISNLESGDFGVYYCQQYEFFGQGTKVQVD
170 nM | 6300 nM | 6000 nM | VRC07-523LS.v34 (antibody) chain 1: QVRLSQSGGQMKKPGDSMRISCSASGYEFINCPINWIRLAPGKRPEWMGWMKPRFGAVSYARQLQGRVTMTRQLSQDPDDPDWGTAFLELRSLTSDDTAVYFCTRGSYCTARDYYNWDFEHWGQGTPVTVSS chain 2: LTQSPGTLSLSPGETAIISCETSQYGSLAWYQQRPGQAPRLVIYSGSTRAAGIPDRFSGSRWGPDYNLTISNLESGDFGVYYCQQYEFFGQGTKVQVD
170 nM | 3800 nM | 1600 nM | VRC07-523LS.v23 (antibody) chain 1: QVRLSQSGGQMKKPGDSMRISCRASGYEFINCPINWIRLAPGKRPEWMGWMKPRFGAVSYARQLQGRVTMTRQLSQDPDDPDWGTAFLELRSLTSDDTAVYFCTRGKYCTARDYYNWDFEHWGQGTPVTVSS chain 2: LTQSPGTLSLSPGETAIISCSTSQYGSLAWYQQRPGQAPRLVIYSGSTRAAGIPDRFSGSRWGPDYNLTISNLESGDFGVYYCQQYEFFGQGTKVQVD
180 nM | 9600 nM | 5400 nM | VRC07-523LS.v37 (antibody) chain 1: QVRLSQSGGQMKKPGDSMRISCQASGYEFINCPINWIRLAPGKRPEWMGWMKPRFGAVSYARQLQGRVTMTRQLSQDPDDPDWGTAFLELRSLTSDDTAVYFCTRGQYCTARDYYNWDFEHWGQGTPVTVSS chain 2: LTQSPGTLSLSPGETAIISCETSQYGSLAWYQQRPGQAPRLVIYSGSTRAAGIPDRFSGSRWGPDYNLTISNLESGDFGVYYCQQYEFFGQGTKVQVD
